A short description of data set [1]: Direct vial assay: adsorption of labeled insulin to various coated surfaces (fluorescence). It is filed as physicochemical. As to conditions: 10 μg/mL in 50 mM phosphate buffer pH 7, 4° C., 72 hours; nine surfaces (FIG. 6). The text has this: (§1) One aspect of the invention is an assay method for the determination of drug adsorption to commercially available pharmaceutical packaging surfaces and test surfaces under development. Pharmaceutical packaging surface materials include glass, polymers (polyethylene, polypropylene, polycarbonate, polyterphalate, cylic olefin copolymer, etc.), elastomers (rubbers, etc.), metals and alloys for vials, syringes, ampoules, cartridges, stoppers, etc. and components thereof. The assay consists of the following steps: • 1) Drug of interest is labeled with a fluorescent chemical group and degree of incorporation of dye is quantified. • 2) Calibration curves of various concentrations of the fluorescently labeled biomolecules are generated. • 3) Fluorescently labeled drug solution is exposed to the pharmaceutical packaging surface of interest for a length of time ranging from minutes to years. • 4) Fluorescently labeled drug solution is removed from pharmaceutical packaging surface of interest. This solution can be analyzed to determine the amount of drugs remaining in the solution. […] Aliquots of the solution, or aliquots of the solution first concentrated, are then applied to a sample holding surface for determination of biomolecular adsorption via fluorescence measurements. […]

The conditions of data set [2]: supplier material data; cited from earlier work.
A short description of data set [3]: Direct vial assay: adsorption of Cy3-labeled fibrinogen to coated Type 1 glass surfaces (fluorescence). The conditions noted are these: 5 μg/mL in 50 mM phosphate buffer pH 7, 4° C., 72 hours; four surfaces (FIG. 3). The class given is physicochemical.
Source text: as §1

For “insulin: Porcine insulin from Sigma (15523), test biomolecule”, the “protein adsorption to sample surfaces, normalized to Type 1 vial” value in data set [1] is “quantifiable difference in protein adsorption between various sample surfaces”. For the same substance, the pI in data set [2] is 7.0.
fibrinogen: in data set [3], the “protein adsorption to sample surfaces” value was “quantifiable difference in protein adsorption between various sample surfaces”. Moreover, the pI in data set [2] was 5.4.

(Values after patent US20080213909A1, “PHARMACEUTICAL PACKAGING ASSAY” (priority 2006, published 2008).)
